Measured values as given in patent publication US20110223176A1 (AbbVie / Abbott, published 2011).

Legend:
[1] = target: T1, human BSG2 (basigin isoform 2) on the cell surface (human, UniProt P35613 140-385); experiment: flow cytometry (FACS) on BAF3 cells expressing human BSG2
T1 construct: Presented on stably transfected BAF3 cells or endogenously on human tumor cell lines (HepG2, MiaPaCa-2, DoHH-2); also called hBSG2; CD147
T1 sequence: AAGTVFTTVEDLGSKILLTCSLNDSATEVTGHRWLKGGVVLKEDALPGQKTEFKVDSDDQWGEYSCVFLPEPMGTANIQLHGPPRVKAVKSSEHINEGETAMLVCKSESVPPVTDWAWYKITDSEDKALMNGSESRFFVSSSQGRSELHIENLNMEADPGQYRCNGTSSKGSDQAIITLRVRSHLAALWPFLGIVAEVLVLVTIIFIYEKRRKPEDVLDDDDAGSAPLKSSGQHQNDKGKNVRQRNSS
Method: (§1) Stable cell lines overexpressing cell-surface BSG2 or human tumor cell lines were harvested from tissue culture flasks, washed three times and resuspended in phosphate buffered saline (PBS) containing 1% bovine serum albumin and 1 mM CaCl₂ (FACS buffer). 5×10⁵ cells were incubated with antibodies at various concentrations in FACS buffer for 60 minutes on ice. Cells were washed twice and the bound murine monoclonal antibody was detected with a goat Fab′2 anti-mouse IgM+IgG+IgA (H+L) R-phycoerythrin-conjugated antibody (Southern Biotechnology Associates, Inc., Birmingham, Ala., Catalog No. 1012-08) diluted 1:500. Following incubation on ice (4° C., 60 minutes), cells were washed three times and resuspended in FACS buffer. Fluorescence was measured using a Becton Dickinson FACSCalibur-HTS (Becton Dickinson, San Jose, Calif., US). Data were analyzed using Graphpad Prism software and EC₅₀ values were reported as the concentration of antibody to achieve 50% of maximal BSG2 antibodies binding to BSG2 expressing cells.

[2] = target: T2, cynomolgus monkey BSG2 on the cell surface (cynomolgus monkey); experiment: flow cytometry (FACS) on BAF3 cells expressing cynomolgus BSG2
T2 construct: whole, on cells; also called BAF3-cyno BSG2; Cyno BSG2
Method: as §1

[3] = target: T1, human BSG2 (basigin isoform 2) on the …; experiment: cell-based ECL (MSD) binding on whole cells expressing human BSG2
[4] = target: T3, purified recombinant human BSG2 extracellular domain (human, UniProt P35613 22-325); experiment: SPR (Biacore), mAb captured by anti-mouse Fc, BSG2 ECD injected, 25 C
T3 construct: also called Human BSG2 ECD
T3 sequence: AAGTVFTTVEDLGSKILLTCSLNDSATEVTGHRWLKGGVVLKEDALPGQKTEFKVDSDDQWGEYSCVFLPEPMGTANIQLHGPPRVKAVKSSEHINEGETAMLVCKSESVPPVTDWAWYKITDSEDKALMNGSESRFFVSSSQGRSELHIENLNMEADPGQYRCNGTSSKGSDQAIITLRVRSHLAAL
Method: (§2) Binding of BSG2 antibodies to a purified recombinant BSG2 extracellular domain (ECD) was determined by surface plasmon resonance-based measurements with a Biacore® instrument (either a Biacore 2000, Biacore 3000, or Biacore T100; GE Healthcare, Piscataway, N.J., US). The assay format for mAb affinity analysis was Fc-based capture via immobilized anti-Fc IgG. A standard amine coupling protocol was employed to immobilize Fc-specific IgG via primary amines to the carboxy-methyl (CM) dextran surface of CMS sensorchips. For the study of mouse anti-human BSG2 mAbs, anti-mouse Fc was used as the immobilized capture reagent. An automated protocol, available on the Biacore 2000, was used to immobilize 8000-10000RU of capture reagent in all 4 flowcells of the sensorchip. Binding was recorded as a function of time and kinetic rate constants were calculated. In this assay, on-rates as fast as 10⁷M⁻¹ s⁻¹ and off-rates as slow as 10⁻⁵ s⁻¹ can be measured.
(§3) Briefly, the CM-dextran surfaces were activated by freshly prepared 1:1 […] 3-(N,N-dimethylamino)propyl-N-ethylcarbodiimide (EDC). Then the anti-Fc IgG capture reagent (20 μg/ml in 10 mM sodium acetate, pH 4.5) was applied to the surface followed by deactivation of the surface and blocking of the residual reactive sites with 1M ethanolamine (pH 8.5). The running buffer employed was PBS-PB [1×PBS (Sigma P3813), pH 7.4, 0.005% P20 surfactant, 0.1 mg/ml BSA (Sigma-A7906)] and the assay temperature was 25° C. All reagents were diluted into running buffer to the specified concentrations. Each experimental cycle consisted of the following steps: (1) anti-BSG2 mAbs at 0.5 to 1 μg/ml were captured in flowcells 2, 3 or 4 to a level of 100-120RU. All measurements were referenced against flowcell 1 which had no captured anti-BSG2 mAb; (2) human BSG2 ECD was injected through all 4 flowcells, 240 μl at 80 μl/min. After the antigen injection, dissociation was monitored for 600 seconds at 80 μl/min; and (3) the anti-Fc capture surface was regenerated with 10 mM glycine, pH 1.5.
(§4) The BSG2 antibody binding affinities were determined by the BIACORE technology as described in Example 1.2. Table 10 represents the antibody binding kinetics against human and cynomolgus monkey BSG2 extracellular domain (ECD).

[5] = target: T4, cynomolgus monkey BSG2 extracellular domain (cynomolgus monkey); experiment: as above
T4 construct: extracellular domain; also called Cynomolgus BSG2 ECD
Method: as §2, §3, §4

[6] = target: T2, cynomolgus monkey BSG2 on the cell …; experiment: cell-based ECL (MSD) binding on whole cells expressing cynomolgus BSG2
Method: Cells were plated at 25,000 cells/well in 25 μl PBS using 96 well MSD high binding plates (MSD, catalogue no. L11XB-3), and incubated at 37° C. for 1 hour. 25 μl/well of blocking solution (30% serum in PBS) was added to the plates for 30 minutes at room temperature with mild agitation. Plates were then incubated with 25 μl/well of BSG2 antibodies (10 μg/ml) diluted in assay buffer (10% serum in PBS) for 1 hour at room temperature with mild agitation, and then washed 3× with PBS. Goat anti-mouse or anti-human IgG sulfotag was added at 1 μg/ml for 1 hour with mild agitation, and plates were washed 3× with PBS. After the final wash, plates were incubated with 2×MSD surfactant-free read buffer (catalogue no. R92TD-2) and the signal was detected on a MSD SECTOR Imager 6000. Data were analyzed using Graphpad Prism software and EC₅₀ values were reported.
(§5) BSG2 antibody binding activities against whole cells expressing human or cynomolgus monkey BSG2 were assessed by ECL using MSD technology (described in Example 1.3) and the receptor binding assay (described in Example 1.4) and are shown in Table 11.

[7] = target: T1, human BSG2 (basigin isoform 2) on the …; experiment: receptor binding assay, Eu-labeled antibody on cells expressing human BSG2
Method: Cell lines expressing BSG2 were harvested and washed once in assay buffer (PBS, 0.1% BSA, 0.02% Na Azide, 10 mM EDTA) and resuspended to 5×10⁶ cells per mL. Serial 1:2 dilutions of ⁺³Eu-labeled anti-BSG2 antibody stock in assay buffer were made for final concentrations ranging from 1.6×10⁻⁸-7.7×10⁻¹² M, and a 4 mg/mL solution of unlabeled anti-BSG2 antibody was also prepared. To 96 well round bottom plates, 25 μl of ⁺³Eu-labeled antibody dilutions were added to 25 μl buffer (total counts), or 25 μl of unlabeled antibody were added to 25 μl buffer (background counts). 50 μl of cells at 2.5×10⁵ cells per well were then added to all samples, mixed gently, and incubated on ice for 1 hour. Cell bound antibody was then separated from unbound antibody by transferring 20 μL of the reaction mixture to Acrowell 96 well filter plates (Pall PN 5020), centrifuged for 5 min (2200 rpm), washed 3× with 150 μL cold assay buffer, and centrifuged for 5 min. Signal was determined by incubating samples with 150 μL/well of enhancement buffer and read using Envision. The specific counts were determined by subtracting the background counts (cells+labeled antibody+excess cold antibody) from the corresponding total counts (cells+labeled antibody) for each antibody concentration. The labeled antibody concentration versus total counts was analyzed using Graphpad Prism 4 to calculate Kd and Bmax values.
as §5

[8] = target: T1, human BSG2 (basigin isoform 2) on the …; experiment: flow cytometry (FACS) on HepG2 hepatocellular carcinoma cells (cell-surface BSG2)
Method: as §1

EC50 [1]: 0.2 nM
EC50 [2]: 0.71 nM
EC50 [3]: 0.4 nM
Kd [4]: 2.5 nM
koff [4]: 0.001 s⁻¹
kon [4]: 400000 M⁻¹ s⁻¹
Kd [5]: 1600 nM
koff [5]: 0.6 s⁻¹
kon [5]: 377000 M⁻¹ s⁻¹
EC50 [6]: 16 nM
Kd [7]: 0.4 nM
EC50 [8]: 0.17 nM
B1: mouse anti-human BSG2 monoclonal antibody EB41-1F4-2C1 (antibody, mouse IgG1, V domains shown)
VH: EVKLEESGGGLVQPGGSMKLSCVASGFTFSNFWMDWVRQSPEKGLEWVAEIRLKSTNYATHYAESVKGRFTISRDDSKSSVYLQMNNLRAEDTGIYYCTATSTGYWGQGTTLTVSS
VL: SIVMTQSPKILLVSAGDRVTITCKASQSVSNDVAWYQQKPGQSPKLLIYYASNRYTGVPDRFTGSGYGTDFTFTISTVQAEDLAVYFCQQDYSSPYTFGGGTKLEIK
notes: Hybridoma antibody, mouse IgG1/kappa
